Our source for the Response (nm) and EC50 (read off the curve) values is patent US20210369854A1.

Test [1] addresses purified human CD5 ectodomain (human) (UniProt P06127). As to the kind of experiment: BLI (Octet Red96), antibody on anti-human Fc biosensors, 50 nM CD5 ectodomain, 25 C.
In test [2] the target is human CD5 on cells (MOLT-4 human T lymphoblast cell line; primary human T-cells) (human) (UniProt P06127). The test is described as follows: flow cytometry on primary human T-cells, antibody titration, fluorophore-conjugated (AF488) secondary anti-IgG, MFI. For orientation: Flow cytometry measures light scatter and fluorescence of single cells or particles in a stream.

Usually EC50 (read off the curve) stands for the concentration giving half of the maximal effect. High values mean a less potent agent, low ones a more potent agent.

B1: anti-CD5 antibody 5D7 hIgG1 (humanized version of murine antibody 5D7) (antibody, V domains shown)
VH: QVTLKESGPVLVKPTETLTLTCTFSGFSLSTSGMGVGWIRQAPGKGLEWVAHIWWDDDVYYNPSLKSRLTITKDASKDQVSLKLSSVTAADTAVYYCVRRRATGTGFDYWGQGTLVTVSS
VL: NIVMTQSPSSLSASVGDRVTITCQASQDVGTAVAWYQQKPDQSPKLLIYWTSTRHTGVPDRFTGSGSGTDFTLTISSLQPEDIATYFCHQYNSYNTFGSGTKLEIK
Consider B1, for which the Response (nm) in test [1] turned out to be 0.67 nm. This molecule returned an EC50 (read off the curve) in test [2] of 0.03 nM.
